Here are results for 17 sequences from the supplement of paper PMC9170038.

The series deals with K4 kissing-loop RNA reporter. Briefly: apparent KD of K4 kissing-loop reporter; higher = weaker reporter binding. Particulars: Eterna round: R107. As for the experimental part: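 RNA-MaP round R107: designed RNA switches with theophylline, tryptophan, arginine or FMN aptamers are transcribed on-chip within common flanks. They are titrated with a labelled K4 kissing-loop RNA reporter in RNA-MaP buffer (100 mM Tris pH 7.5, 80 mM KCl, 4 mM MgCl2), without ligand or with the indicated ligand. Median apparent KD per design.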

Setting [1] is: input ligand: theophylline 20 uM.
The mark [2] stands for this setting: input ligand: tryptophan 2.4 mM.
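Further: bound reporter read as fluorescence of individual clusters on recovered sequencing chips by microscopy, with normalized cluster intensities fitted with a binding model.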

In the case of “AAAAUUGCGGUCGAAUUAACUUCUUGCAUACGAGGACCGGUACGGCCGCCACUCGAGUCAAGUGAUGUUUGAUAAUCUAUUAUUA [JR_ExcTryptoA_Sub011]”, the “apparent KD of K4 kissing-loop reporter” value came to 0.19 µM (input ligand: FMN 200 uM); 0.258 µM (input ligand: arginine 13.2 mM); 0.279 µM (input ligand: none); 0.301 µM under setting [1]; 0.16 µM under setting [2].
For “AAACAAGAUGCAGGAUAUACGGACCCAGUGAUGUUGGGUAGAAUUGUCCCGGCAAUCCUUGUGGCAGUAGAAGGGCAAUAAAAGA [Gexeraora]” the same measures were 0.271 µM, 0.134 µM, 0.169 µM, 0.144 µM and 0.151 µM.
For “AAACAUCACUACUUCUUCGUCCUAGAAGACUAGGAUAUCAGGAAACUGAGAAGGAGUCUCUGCAGUGAUGUUGCAGCUAGGACGA [[K]'-[F2]'-[F1]'-[F1]-[F2]-[K1]-[K2]-[F]''_Design2]” the same measures were 0.191 µM, 0.219 µM, 0.194 µM, 0.249 µM and 0.28 µM.
For “AAACAUCACUGGGAGUGAUGUUCUCAGUGACGAGGACCGGUACGGCCGCCACUCGCGAGAGAACUAGUCUAGUCUUGACUGCAUU [Excl Tryptophan A V14]” the same measures were 0.277 µM, 0.333 µM, 0.335 µM, 0.418 µM and 0.398 µM.
As for “AAACAUCACUGGGAGUGAUGUUCUCAGUGACGAGGACCGGUACGGCCGCCACUCGCGAGAGAUAUAGGUAAGUAAUGACAUCAUU [Excl Tryptophan A V5]”, the “apparent KD of K4 kissing-loop reporter” value is, setting by setting: (input ligand: FMN 200 uM) 0.34 µM; (input ligand: arginine 13.2 mM) 0.282 µM; (input ligand: none) 0.36 µM; under setting [1], 0.327 µM; under setting [2], 0.392 µM.
Consider “AAACUUGCAGUGAUGUUGCAAGUAGGUGAUACCAGCAUCGAAAGAUGCCCUUGGCAGCACCAUCUUGUAACAUAGGUAUCACCAA [(H1)-(H2)-(T1)-(T2)-(H)'-(T)'_Design4]”, for which the “apparent KD of K4 kissing-loop reporter” value is, setting by setting: (input ligand: FMN 200 uM) 0.208 µM; (input ligand: arginine 13.2 mM) 0.208 µM; (input ligand: none) 0.194 µM; under setting [1], 0.326 µM; under setting [2], 0.225 µM.
As for “AAAGUUGAUGAGUUGGGUAUGUGUUCCGAAGGAGCGAGAAUUAUCUCAGGUAGGUCGCGGAACAUGAGUGAUGUUCAUGUAUAAA [KL-XArg-A7 #analogue]”, the “apparent KD of K4 kissing-loop reporter” value reads like this: (input ligand: FMN 200 uM) 0.345 µM; (input ligand: arginine 13.2 mM) 0.436 µM; (input ligand: none) 0.365 µM; under setting [1], 0.423 µM; under setting [2], 0.34 µM.
In the same order, the values of “AAAUAAAGCAGUCACCCAGUGAUGUUGGAAGGAGCGUGCGAAAGCACAGGUAGGUCGCCAAAACCUAAUACUGGCUGCUAAAUAA [#03 K4 Arginine A Exclusion]” are 0.242 µM, 0.357 µM, 0.285 µM, 0.307 µM and 0.177 µM.
On to “AAAUAAAGCAGUCAUCCAGUGAUGUUGGAAGGAGCGUGCGAAAGCACAGGUAGGUCGCCAAAACCUAAUAAUGGCUGCUAAAUAA [#SwitchBubble 2 #K4Early]”, for which the “apparent KD of K4 kissing-loop reporter” value came out at 0.17 µM (input ligand: FMN 200 uM); 0.211 µM (input ligand: arginine 13.2 mM); 0.176 µM (input ligand: none); 0.21 µM under setting [1]; 0.141 µM under setting [2].
For “AAAUAAAGGGCGGCCGCCACUGAUCGCCUCCGCGUGGGUAUGUAGUGAUGUUAUAUGGCCGCCAUCAGGACCGGGCCAAAUAAAA [#10 K4 Tryptophan B Same State]” the same measures were 0.214 µM, 0.187 µM, 0.34 µM, 0.272 µM and 0.193 µM.
In the same order, the values of “AACAGCAAUGCGGCCGCCACUUCGAGGUCAGUGAUGUUGACAGAAUUAAAUAAAGAUCCCAAGAGGAGGACCGGGCAGUGCUGUU [whbob_SS_Tryp_B_t24]” are 0.534 µM, 0.417 µM, 0.674 µM, 0.527 µM and 0.416 µM.
On to “AACGCUGUGAAUAACACAGCGAAUAAUUCGCGAGGACCGGUACGGCCGCCACUCGCUAACUGCGAGUGAUGUUCGAUAAUAAAAU [Mat - Mod of OpenEnded 3 - D12]”, for which the “apparent KD of K4 kissing-loop reporter” value came out at 0.148 µM (input ligand: FMN 200 uM); 0.116 µM (input ligand: arginine 13.2 mM); 0.177 µM (input ligand: none); 0.237 µM under setting [1]; 0.113 µM under setting [2].
For “AACUAUUAAUGAAUUACAUUUUAUUUUUCUCGAGGACCGGUACGGCCGCCACUCGUACUAUAGUGAUGUUAUAGAUAAGUCCUAA [JR_ExcTryptoA_Sub021]” the same measures were 0.118 µM, 0.184 µM, 0.134 µM, 0.177 µM and 0.0713 µM.
For the sequence “AACUCUCAGGCACCCGAGUGAUGUUCGGGCCGAGGACCGGUACGGCCGCCACUCGGGCCUGAGAGAGGUUAUCAAAGAUAGCCAA [Omei KL Tryp A SS A v1]”, the “apparent KD of K4 kissing-loop reporter” value is, setting by setting: (input ligand: FMN 200 uM) 0.247 µM; (input ligand: arginine 13.2 mM) 0.0685 µM; (input ligand: none) 0.114 µM; under setting [1], 0.0627 µM; under setting [2], 0.248 µM.
For “AACUGCCAAGGAACAUUGUAAGAAGGUGAUACCAGCAUCGAAAGAUGCCCUUGGCAGCACCAACUUGCAGUGAUGUUGCAAGUAA [Design5]” the same measures were 0.183 µM, 0.156 µM, 0.165 µM, 0.18 µM and 0.159 µM.
For “AACUGGGUUCGUGAUACCAGCUCACACAUGAGUGAUGUUCAUGUAGUGGGCAAAAUGUGGAGCCCUUGGCAGCACUGUGACCACG [XTheo-B2]” the same measures were 0.0811 µM, 0.069 µM, 0.077 µM, 0.0733 µM and 0.0785 µM.
“AACUGUCAAGGACAACAUUACUGAGGUGAUACCAGCAUCGAAAGAUGCCCUUGGCAGCACUGACUUGCAGUGAUGUUGCAAGUAA [BrourdMod 8 - Jieux - Exclusion - Theophylline A]”: the “apparent KD of K4 kissing-loop reporter” value reads like this: (input ligand: FMN 200 uM) 0.208 µM; (input ligand: arginine 13.2 mM) 0.162 µM; (input ligand: none) 0.199 µM; under setting [1], 0.215 µM; under setting [2], 0.189 µM.
